B1: TPR t1 (parent)
chain: GACCAAUCUGCCCUCAGAGCUCGAGAACAUCUUCGGAUGCAGAGGAGGCAGGCUUCGGUGGCGCGAUAGCGCCAACGUCCUCAACCUCCAAUGCAUCCCACCACAUGAUGAUGCCUGAAGAGCCUUGGUUUUUUG

Variants of B1 are the subject of the series. The series is described as follows: polymerase ribozyme fitness, log enrichment relative to wild type (log ratio); higher = more active; in vitro selection for triplet polymerase activity. In short, it runs like this:
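One round of in vitro selection, in triplicate, was applied to PCR-built, transcribed mutant libraries of each subunit of a heterodimeric triplet polymerase ribozyme. The steps were annealing with a biotinylated primer, partner subunit and triplets, incubation frozen at −7 °C, gel excision of extended constructs, streptavidin-bead capture and RT-PCR. Fitness is the logarithm, base 2, of genotype enrichment over wild-type enrichment from inverse-variance-weighted replicate averages of Illumina-sequenced inputs and outputs, keeping genotypes with ≥10 input reads and ≥1 read per output.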
Turning to U9C A46U C53U A84C C88U, the “polymerase ribozyme fitness (log ratio)” value was -1.01.

Take U9G A37U G42A G45C A95G: the “polymerase ribozyme fitness (log ratio)” value is -3.58.

As to U9G A66C C104U, the “polymerase ribozyme fitness (log ratio)” value was -0.809.

Regarding U9G A29G G39U U54A A83U, the “polymerase ribozyme fitness (log ratio)” value is -3.38.

Consider U9G C56G G61U G93C, for which the “polymerase ribozyme fitness (log ratio)” value was -3.2.

For the variant U9C U14G C80G, the “polymerase ribozyme fitness (log ratio)” value was -6.05.

Take U9C C64A U67A C73U C85U G120C: the “polymerase ribozyme fitness (log ratio)” value is -6.47.

In the case of U9G G120U, the “polymerase ribozyme fitness (log ratio)” value stood at 1.06.

For the variant U9G G39A C64U G93C C94G, the “polymerase ribozyme fitness (log ratio)” value was -4.56.

U9G G51C C56G C80G A119U: the “polymerase ribozyme fitness (log ratio)” value is -0.301.

As for U9G G42U A121C, the “polymerase ribozyme fitness (log ratio)” value stood at 0.979.

Consider U9G A27C C114A, for which the “polymerase ribozyme fitness (log ratio)” value was -3.98.

In the case of U9C G44U G63A C89G U109A, the “polymerase ribozyme fitness (log ratio)” value is -7.22.

With U9C G69U, the “polymerase ribozyme fitness (log ratio)” value stood at 1.23.

On to U9C G69A, for which the “polymerase ribozyme fitness (log ratio)” value was -2.17.

With U9C C12A U21A C80A U87A G93U A121U U126G, the “polymerase ribozyme fitness (log ratio)” value was -5.57.

Take U9G U54G U81A U125A G128U: the “polymerase ribozyme fitness (log ratio)” value was -3.65.

With U9G G110A, the “polymerase ribozyme fitness (log ratio)” value is -0.713.

With U9G G110U, the “polymerase ribozyme fitness (log ratio)” value was -1.36.

U9G G93A G128A U129G: the “polymerase ribozyme fitness (log ratio)” value was -1.96.

For U9G C72U, the “polymerase ribozyme fitness (log ratio)” value amounted to 0.16.

Regarding U9G G19U G44A G58C, the “polymerase ribozyme fitness (log ratio)” value is -3.46.

As to U9G A41U A95C, the “polymerase ribozyme fitness (log ratio)” value is -2.53.

In the case of U9G C12G A91C G127C U129A, the “polymerase ribozyme fitness (log ratio)” value is -2.32.

For U9G G63U C64A C88A A119G, the “polymerase ribozyme fitness (log ratio)” value was -6.72.

Turning to U9G U32A C62G U92G G117C, the “polymerase ribozyme fitness (log ratio)” value was -5.56.

As to U9G A26C, the “polymerase ribozyme fitness (log ratio)” value was -4.47.

Regarding U9G U32C G52C G110C, the “polymerase ribozyme fitness (log ratio)” value is -5.7.

In the case of U9G C102U, the “polymerase ribozyme fitness (log ratio)” value was -1.48.

On to U9A G58A G61A C85A, for which the “polymerase ribozyme fitness (log ratio)” value was -1.75.

Turning to U9C G69U U130G, the “polymerase ribozyme fitness (log ratio)” value was determined as 0.198.

On to U9A G61A A100U, for which the “polymerase ribozyme fitness (log ratio)” value was 0.389.

On to U9C G69U A83U, for which the “polymerase ribozyme fitness (log ratio)” value was -0.05.

U9C C86A C99A: the “polymerase ribozyme fitness (log ratio)” value is -5.49.

With U9G C97A A111G, the “polymerase ribozyme fitness (log ratio)” value was -6.78.

U9A G113A U130G: the “polymerase ribozyme fitness (log ratio)” value is -0.107.

In the case of U9A U78A G93C C124G G128C, the “polymerase ribozyme fitness (log ratio)” value was -2.15.

As for U9G C80A, the “polymerase ribozyme fitness (log ratio)” value was -2.27.

Regarding U9G G51A, the “polymerase ribozyme fitness (log ratio)” value is -1.96.

For U9G C40G C53G U130G, the “polymerase ribozyme fitness (log ratio)” value was -1.2.

In the case of U9G C97G C104U, the “polymerase ribozyme fitness (log ratio)” value was -2.99.

As for U9C C62A A75G C94A G110A, the “polymerase ribozyme fitness (log ratio)” value was -4.36.

Consider U9C C11G G36U U116A C123G, for which the “polymerase ribozyme fitness (log ratio)” value is -1.92.

In the case of U9G U14A A46U A68G, the “polymerase ribozyme fitness (log ratio)” value was -4.4.

On to U9G G23A G60A G71C G113U G135C, for which the “polymerase ribozyme fitness (log ratio)” value is -5.28.

Regarding U9G C11A G39C C72G G77C A118U, the “polymerase ribozyme fitness (log ratio)” value is -2.83.

Take U9G C70A C85U A90G C102A: the “polymerase ribozyme fitness (log ratio)” value was -4.92.

For the variant U9C A37U G110U, the “polymerase ribozyme fitness (log ratio)” value was -0.951.

Take U9C A41G C64U C86A: the “polymerase ribozyme fitness (log ratio)” value was -0.494.

As for U9G A41U A95C U131A, the “polymerase ribozyme fitness (log ratio)” value is -1.93.

On to U9C G61A, for which the “polymerase ribozyme fitness (log ratio)” value came out at 0.487.

For the variant U9C C22U C34A A43G G77A U106A, the “polymerase ribozyme fitness (log ratio)” value is -7.59.

Take U9C U81C C98A: the “polymerase ribozyme fitness (log ratio)” value is -5.87.

Consider U9G G45A U96G, for which the “polymerase ribozyme fitness (log ratio)” value was -0.306.

With U9C G63C U96G C97A C123A, the “polymerase ribozyme fitness (log ratio)” value was -3.72.

Regarding U9G A103U, the “polymerase ribozyme fitness (log ratio)” value was -4.16.

In the case of U9G C98A, the “polymerase ribozyme fitness (log ratio)” value is -5.08.

With U9G C98U, the “polymerase ribozyme fitness (log ratio)” value was -0.308.

In the case of U9G C56G, the “polymerase ribozyme fitness (log ratio)” value was -0.492.

Regarding U9G A46C U87A G93C C115A U116C A119C, the “polymerase ribozyme fitness (log ratio)” value was -3.97.

For the variant U9A U14A A75U C124U G127C, the “polymerase ribozyme fitness (log ratio)” value is -0.619.

As to U9C C89A, the “polymerase ribozyme fitness (log ratio)” value is -0.733.

Consider U9A G51C C86G U87A, for which the “polymerase ribozyme fitness (log ratio)” value was -5.3.

In the case of U9G U21C C70U, the “polymerase ribozyme fitness (log ratio)” value is -1.31.

As for U9C G47C G71U, the “polymerase ribozyme fitness (log ratio)” value is -2.13.

Take U9G A41U G61U U87A G110A: the “polymerase ribozyme fitness (log ratio)” value was -3.56.

Consider U9C C73U C85U G120C, for which the “polymerase ribozyme fitness (log ratio)” value worked out at 1.44.

U9C C72U C102A: the “polymerase ribozyme fitness (log ratio)” value was -1.5.

On to U9G A37U G42C C86A U112A, for which the “polymerase ribozyme fitness (log ratio)” value is -2.41.

As for U9C C15G A43U U131C, the “polymerase ribozyme fitness (log ratio)” value is -2.2.

For the variant U9G C101U, the “polymerase ribozyme fitness (log ratio)” value came to 0.459.

Take U9A U106A: the “polymerase ribozyme fitness (log ratio)” value is 0.641.

Turning to U9C C11U G60C G71U U133A, the “polymerase ribozyme fitness (log ratio)” value is -4.61.

As for U9C G45C U131G, the “polymerase ribozyme fitness (log ratio)” value is -1.16.

Consider U9G U54A G69C U129C, for which the “polymerase ribozyme fitness (log ratio)” value is -2.97.

Regarding U9G U14C U38G G61U C72U A91U C124U, the “polymerase ribozyme fitness (log ratio)” value is -3.69.

In the case of U9C C13A A50G C72U A84U C89A C98U C102A, the “polymerase ribozyme fitness (log ratio)” value was -6.4.

On to U9C C22G C31G U38G A121U, for which the “polymerase ribozyme fitness (log ratio)” value is -6.73.

As for U9C A90C, the “polymerase ribozyme fitness (log ratio)” value is -0.197.

As for U9C C99U, the “polymerase ribozyme fitness (log ratio)” value is -1.75.

Turning to U9G C31G U87A C114A, the “polymerase ribozyme fitness (log ratio)” value is -5.66.

U9G C88U: the “polymerase ribozyme fitness (log ratio)” value is -0.0494.

Regarding U9G C88A, the “polymerase ribozyme fitness (log ratio)” value was -0.00805.

The record behind these values is the RNAGym collection of RNA variant scans (doi:10.1073/pnas.2313332121).
